Data on 20 molecules can be found in paper PMC10548220, “Development and evaluation of nanobody tracers for noninvasive nuclear imaging of the immune-checkpoint TIGIT” (Frontiers in Immunology, 2023).

The target in one test is CD155 (Homo sapiens) (UniProt P15151). The conditions noted are these: cited from earlier work.
For test [1], the target named is T1, recombinant human TIGIT-Fc carrier-free protein (Homo sapiens (Human)., UniProt Q495A1).
T1 construct: T cell Ig and ITIM domain receptor (TIGIT), human; also called hTIGIT-Fc; recombinant hTIGIT; source: bought: Biolegend
T1 sequence (Q495A1 22-141): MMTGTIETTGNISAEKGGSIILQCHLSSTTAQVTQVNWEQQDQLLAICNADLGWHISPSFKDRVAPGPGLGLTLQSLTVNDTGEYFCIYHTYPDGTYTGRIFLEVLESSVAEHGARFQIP
The experiment in a line: SPR; Biacore T200; recombinant m/hTIGIT-Fc immobilised on a CM5 chip; Nbs injected, eight two-fold dilutions from 200 nM, 10 µl/min, 25°C; HBS pH 7.4 (0.01 M HEPES, 0.15 M NaCl, 3 mM EDTA, 0.005% Tween 20); fit 1:1 binding with drift and RI2. The conditions noted are these: both partners purified. On the technique in general: In SPR one partner is held on a chip, and binding of the other changes the refractive index at the surface.

The target in test [2] is T2, recombinant human TIGIT-Fc carrier-free protein (Homo sapiens (Human)., UniProt Q495A1-1).
T2 construct: T cell Ig and ITIM domain receptor (TIGIT), human; also called hTIGIT-Fc; human TIGIT recombinant protein; source: bought: Biolegend (Cat. No. 768608)
T2 sequence (Q495A1 22-141): as above
The experiment in a line: SPR; Biacore T200; m/hTIGIT-Fc (10 µg/mL in 10 mM Na-acetate pH 4.0) immobilised on a CM5 chip; Nbs or scFv injected in two-fold dilutions from 200 nM, 10 µl/min, 25°C; HBS pH 7.4 (0.01 M HEPES, 0.15 M NaCl, 3 mM EDTA, 0.005% Tween 20); fit 1:1 binding with drift and RI2. The note with it: both partners purified.

Test [3] deals with recombinant mouse TIGIT-Fc carrier-free protein (mouse) (UniProt P86176). As to the kind of experiment: SPR; Biacore T200; recombinant m/hTIGIT-Fc immobilised on a CM5 chip; Nbs injected, eight two-fold dilutions from 200 nM, 10 µl/min, 25°C; HBS pH 7.4 (0.01 M HEPES, 0.15 M NaCl, 3 mM EDTA, 0.005% Tween 20); fit 1:1 binding with drift and RI2.
Sequence of recombinant mouse TIGIT-Fc carrier-free protein (mouse) (P86176 29-148): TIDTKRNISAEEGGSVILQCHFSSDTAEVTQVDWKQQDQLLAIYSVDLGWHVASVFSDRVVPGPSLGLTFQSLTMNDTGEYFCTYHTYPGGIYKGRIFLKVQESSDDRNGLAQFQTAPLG
The target of test [4] is T3, recombinant mouse TIGIT-Fc carrier-free protein (Mus musculus, UniProt A0A0B4J1G6).
T3 construct: T cell Ig and ITIM domain receptor (TIGIT), mouse; also called mTIGIT-Fc; mouse TIGIT recombinant protein; source: bought: Biolegend (Cat. No. 771808)
The experiment in a line: SPR; Biacore T200; m/hTIGIT-Fc (10 µg/mL in 10 mM Na-acetate pH 4.0) immobilised on a CM5 chip; Nbs or scFv injected in two-fold dilutions from 200 nM, 10 µl/min, 25°C; HBS pH 7.4 (0.01 M HEPES, 0.15 M NaCl, 3 mM EDTA, 0.005% Tween 20); fit 1:1 binding with drift and RI2. The note with it: both partners purified.
T3 sequence (P86176 29-148): as above

Test [5] deals with T4, recombinant mouse TIGIT-Fc carrier-free protein (Mus musculus, UniProt A0A0B4J1G6).
T4 construct: T cell Ig and ITIM domain receptor (TIGIT), mouse; also called mTIGIT-Fc; recombinant mTIGIT; source: bought: Biolegend
The experiment in a line: SPR; Biacore T200; recombinant m/hTIGIT-Fc immobilised on a CM5 chip; Nbs injected, eight two-fold dilutions from 200 nM, 10 µl/min, 25°C; HBS pH 7.4 (0.01 M HEPES, 0.15 M NaCl, 3 mM EDTA, 0.005% Tween 20); fit 1:1 binding with drift and RI2. The note with it: both partners purified.
T4 sequence (P86176 29-148): as above

Sequence of CD155 (Homo sapiens) (P15151 21-343): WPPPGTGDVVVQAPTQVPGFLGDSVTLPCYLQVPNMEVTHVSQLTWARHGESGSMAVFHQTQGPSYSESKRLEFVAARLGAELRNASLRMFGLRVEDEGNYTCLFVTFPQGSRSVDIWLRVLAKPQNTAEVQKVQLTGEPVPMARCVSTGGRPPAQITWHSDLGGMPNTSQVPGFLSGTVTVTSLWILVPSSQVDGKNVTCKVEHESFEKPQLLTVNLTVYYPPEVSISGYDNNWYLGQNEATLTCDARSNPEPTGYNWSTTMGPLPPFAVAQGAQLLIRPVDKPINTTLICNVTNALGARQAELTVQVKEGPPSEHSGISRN

The Kd is the concentration at which binding is half-saturated. Take TIGIT (from UniProt Q495A1): the Kd with CD155 (Homo sapiens) was 2 nM.

B1: anti-hTIGIT nanobody 16920 (VHH)
VHH: QVQLQESGGGFVQAGGSLRLSCAASSISSIYAMDWYRQAPGKQREFVAGITSGGTTNYGSTVKGRFTISRDESKNTVDLQMNSLKPEDSAVYVCRATISWKIYSGQGTQVTVSS
notes: Cloned into pHen6 after PCR with primers A6E and PMCF; source: E. coli WK6, periplasmic extract, purified (Ni-NTA, SEC); not shown: His6, C-terminal, kept
B1: the Kd in test [1] came out at 0.753 ± 0.002 nM.

B2: anti-hTIGIT Nb 16920 (VHH)
VHH: QVQLQESGGGFVQAGGSLRLSCAASSISSIYAMDWYRQAPGKQREFVAGITSGGTTNYGSTVKGRFTISRDESKNTVDLQMNSLKPEDSAVYVCRATISWKIYSGQGTQVTVSS
notes: nanobody from an immunized llama; Cloned in pHen6 after PCR with primers A6E and PMCF; source: E. coli WK6, periplasmic extract, purified (Ni-NTA, SEC); not shown: His6, C-terminal, kept
As usually defined, the koff is the first-order rate constant of dissociation. What is called kon is the second-order rate constant of association. Turning to B2, in test [2], the koff was determined as 0.00426 s⁻¹ and the kon was found to be 5.66e+06 M⁻¹ s⁻¹.

B3: anti-hTIGIT nanobody 17037 (VHH)
VHH: QVQLQESGGGLVQAGGSLRLSCAASSTLSIDDMGWYRQAPEKHREFVATISRGGSTNYAASVKGRFTISRDNAKNTVFLQMNNLKSEDTAVYYCRATSTWRYYWAQGTQVTVSS
notes: Cloned into pHen6 after PCR with primers A6E and PMCF; also called Nb 17037; source: E. coli WK6, periplasmic extract, purified (Ni-NTA, SEC); not shown: His6, C-terminal, kept
As to B3, in test [1], the Kd was 0.116 ± 0.001 nM.

B4: anti-hTIGIT Nb 17037 (VHH)
VHH: QVQLQESGGGLVQAGGSLRLSCAASSTLSIDDMGWYRQAPEKHREFVATISRGGSTNYAASVKGRFTISRDNAKNTVFLQMNNLKSEDTAVYYCRATSTWRYYWAQGTQVTVSS
notes: as for B2
In the case of B4, in test [2], the koff turned out to be 0.00157 s⁻¹ and the kon was found to be 1.36e+07 M⁻¹ s⁻¹.

B5: anti-mTIGIT Nb 16979 (VHH)
VHH: QVQLQESGGGLVQAGESLRLSCAASIIVSDNIMAWYRQSPGKQREIVALISSTGTINYVDSVKGRFTISRDNAKNTLNLQMTKLKPEDTAVYYCSGRTLRVYWGQGTQVTVSS
notes: as for B2
For B5, in test [3], the Kd amounted to 846 nM. Also, in test [4], the koff is 0.114 s⁻¹ and the kon was 134000 M⁻¹ s⁻¹.

B6: anti-hTIGIT nanobody 16925 (VHH)
VHH: QVQLQESGGGLVQAGGSLRLSCAASSISSINAMGWYRQPPGKQRELVARITFGHSTNYADSVKGRFTISRDNAKSTVYLQMNSLKPEDTAVYYCNADLLLNTQAIRAWGQGTQVTVSS
notes: Cloned into pHen6 after PCR with primers A6E and PMCF; labelled with 99mTc on the His6 tag for the in vivo work; also called lead hTIGIT Nb; source: E. coli WK6, periplasmic extract, purified (Ni-NTA, SEC); not shown: His6, C-terminal, kept
B6: in test [1], the Kd worked out at 1.974 ± 0.004 nM.

B7: anti-hTIGIT Nb 16925 (VHH)
VHH: QVQLQESGGGLVQAGGSLRLSCAASSISSINAMGWYRQPPGKQRELVARITFGHSTNYADSVKGRFTISRDNAKSTVYLQMNSLKPEDTAVYYCNADLLLNTQAIRAWGQGTQVTVSS
notes: as for B2
Regarding B7, in test [2], the koff came to 0.000911 s⁻¹ and the kon came out at 462000 M⁻¹ s⁻¹.

B8: anti-mTIGIT nanobody 16966 (VHH)
VHH: QVQLQESGGGSVRPGESLRLSCAASSDSSITGMDWYRQAPGKQREWVATITRNNITIYGASVKGRFTVSRDNVKNTWYLQMNSLKPEDTAVYYCTYRGNWGQGTQVTVSS
notes: Cloned into pHen6 after PCR with primers A6E and PMCF; labelled with 99mTc on the His6 tag for the in vivo work; also called Nb 16966; source: E. coli WK6, periplasmic extract, purified (Ni-NTA, SEC); not shown: His6, C-terminal, kept
Take B8: the Kd in test [5] was found to be 0.157 ± 0.001 nM.

B9: anti-mTIGIT nanobody 16972 (VHH)
VHH: QVQLQESGGGLVQTGESLRLSCAASSVSSITGMDWYRQAPGKQREWVATITRNNIAMYGASVKGRFTVSRDNAKNTWYLQMNSLKPEDTAVYYCTYRGNWGQGTQVTVSS
notes: Cloned into pHen6 after PCR with primers A6E and PMCF; also called Nb 16972; source: E. coli WK6, periplasmic extract, purified (Ni-NTA, SEC); not shown: His6, C-terminal, kept
In the case of B9, in test [5], the Kd turned out to be 0.152 ± 0.001 nM.

B10: anti-mTIGIT nanobody 16988 (VHH)
VHH: QVQLQESGGGLVQAGGSLRLSCAASSVSSITGMDWYRQAPGKQREWVATITRNNIAMYGASVKGRFTVSRDDAKNTWYLQMNSLKPEDTAVYYCTYHGNWGQGTQVTVSS
notes: Cloned into pHen6 after PCR with primers A6E and PMCF; labelled with 99mTc on the His6 tag for the in vivo work; also called lead anti-mTIGIT Nb; source: E. coli WK6, periplasmic extract, purified (Ni-NTA, SEC); not shown: His6, C-terminal, kept
As for B10, in test [5], the Kd came to 0.104 ± 0.001 nM.

B11: anti-mTIGIT Nb 16988 (VHH)
VHH: QVQLQESGGGLVQAGGSLRLSCAASSVSSITGMDWYRQAPGKQREWVATITRNNIAMYGASVKGRFTVSRDDAKNTWYLQMNSLKPEDTAVYYCTYHGNWGQGTQVTVSS
notes: as for B2
As for B11, in test [4], the koff was 0.000738 s⁻¹ and the kon turned out to be 7.06e+06 M⁻¹ s⁻¹.

B12: anti-mTIGIT Nb 16966 (VHH)
VHH: QVQLQESGGGSVRPGESLRLSCAASSDSSITGMDWYRQAPGKQREWVATITRNNITIYGASVKGRFTVSRDNVKNTWYLQMNSLKPEDTAVYYCTYRGNWGQGTQVTVSS
notes: as for B2
On to B12, for which, in test [4], the koff worked out at 0.00257 s⁻¹ and the kon is 1.64e+07 M⁻¹ s⁻¹.

B13: anti-mTIGIT Nb 16972 (VHH)
VHH: QVQLQESGGGLVQTGESLRLSCAASSVSSITGMDWYRQAPGKQREWVATITRNNIAMYGASVKGRFTVSRDNAKNTWYLQMNSLKPEDTAVYYCTYRGNWGQGTQVTVSS
notes: as for B2
Turning to B13, in test [4], the koff is 0.00113 s⁻¹ and the kon came to 7.46e+06 M⁻¹ s⁻¹.

B14: anti-hTIGIT nanobody 17010 (VHH)
VHH: QVQLQESGGGSVQTGGSLRLSCAASNGFSINAMGWYRQSPGKQRELVARITSGSSTNYTNYADSVKGRFTISRDNAKNTGYLEMNLLKPEDTAVYYCHADVLLGGLQGLIQRFWGQGTQVTVSS
notes: Cloned into pHen6 after PCR with primers A6E and PMCF; also called Nb 17010; source: E. coli WK6, periplasmic extract, purified (Ni-NTA, SEC); not shown: His6, C-terminal, kept
For the molecule B14, the Kd in test [1] worked out at 0.345 ± 0.001 nM.

B15: anti-hTIGIT Nb 17010 (VHH)
VHH: QVQLQESGGGSVQTGGSLRLSCAASNGFSINAMGWYRQSPGKQRELVARITSGSSTNYTNYADSVKGRFTISRDNAKNTGYLEMNLLKPEDTAVYYCHADVLLGGLQGLIQRFWGQGTQVTVSS
notes: as for B2
Take B15: in test [2], the koff was found to be 0.000803 s⁻¹ and the kon came out at 2.33e+06 M⁻¹ s⁻¹.

B16: single-chain variable fragment derived from the monoclonal antibody Vibostolimab (scFv, V domains shown)
VH: EVQLVQSGAEVKKPGSSVKVSCKASGYTFSSYVMHWVRQAPGQGLEWIGYIDPYNDGAKYAQKFQGRVTLTSDKSTSTAYMELSSLRSEDTAVYYCARGGPYGWYFDVWGQGTTVTVSS
VL: DIQMTQSPSSLSASVGDRVTITCRASEHIYSYLSWYQQKPGKVPKLLIYNAKTLAEGVPSRFSGSGSGTDFTLTISSLQPEDVATYYCQHHFGSPLTFGQGTRLEIK
notes: VH of the mAb Vibostolimab (Merck); (G4S)3 linker, written out from the printed formula; VL of the mAb Vibostolimab (Merck); Cloned into pHen6 by Gibson assembly; also called scFv Vibo; Vibo scFv; source: E. coli WK6, periplasmic extract, purified (Ni-NTA, SEC), produced in the same way as the Nbs; not shown: His6, C-terminal, kept
Turning to B16, the Kd in test [1] was found to be 0.996 ± 0.004 nM.

B17: single-chain variable fragment derived from the monoclonal antibody Vibostolimab (scFv, V domains shown)
VH: EVQLVQSGAEVKKPGSSVKVSCKASGYTFSSYVMHWVRQAPGQGLEWIGYIDPYNDGAKYAQKFQGRVTLTSDKSTSTAYMELSSLRSEDTAVYYCARGGPYGWYFDVWGQGTTVTVSS
VL: DIQMTQSPSSLSASVGDRVTITCRASEHIYSYLSWYQQKPGKVPKLLIYNAKTLAEGVPSRFSGSGSGTDFTLTISSLQPEDVATYYCQHHFGSPLTFGQGTRLEIK
notes: variable domain of the heavy chain (VH) of Vibostolimab (Merck); (G4S)3 linker; variable domain of the light chain (VL) of Vibostolimab (Merck); Cloned in pHen6; also called ScFv Vibo; Vibo scFv; source: E. coli WK6, periplasmic extract, purified (Ni-NTA, SEC), produced in the same way as the Nbs; not shown: His6, C-terminal, kept
As to B17, in test [2], the koff worked out at 0.000827 s⁻¹ and the kon amounted to 830000 M⁻¹ s⁻¹.

B18: anti-hTIGIT nanobody 17018 (VHH)
VHH: QVQLQESGGGLVQAGGSLRLSCTASSIFSINAMGWYRQTPGKQRELVARITNGSSTNYADSVKGRFTISRDNAKNTVYLQMNSLKPEDTAVYYCHTDLLLEVGAMRYWGQGTQVTVSS
notes: Cloned into pHen6 after PCR with primers A6E and PMCF; also called Nb 17018; source: E. coli WK6, periplasmic extract, purified (Ni-NTA, SEC); not shown: His6, C-terminal, kept
In the case of B18, the Kd in test [1] turned out to be 0.47 ± 0.002 nM.

B19: anti-hTIGIT Nb 17018 (VHH)
VHH: QVQLQESGGGLVQAGGSLRLSCTASSIFSINAMGWYRQTPGKQRELVARITNGSSTNYADSVKGRFTISRDNAKNTVYLQMNSLKPEDTAVYYCHTDLLLEVGAMRYWGQGTQVTVSS
notes: as for B2
In the case of B19, in test [2], the koff is 0.000496 s⁻¹ and the association rate constant (kon) amounted to 1.06e+06 M⁻¹ s⁻¹.
